The record followed here is US20090158455A1, “COMPOSITIONS AND METHODS FOR MODULATING LYSINE PRODUCTION” (priority 2005, published 2009).

Holding throughout (assay type): biochemical
For data set [1], the system named is LL-DAP transaminase. Put plainly: Quantitative reverse assay of purified microbial LL-DAP transaminases. Conditions: reverse. The procedure: (§1) Enzyme assays were performed as described above in Examples I and II.
(§2) The catalytic properties of sll0480, BF2643, Dhaf—3980, MTH52, and SfumDRAFT0821 were studied in greater detail using purified enzymes to determine their kinetic constants using quantitative forward and reverse assays.

Data set [2] has as its system LL-DAP transaminase. Put plainly: Quantitative forward assay of purified microbial LL-DAP transaminases. The procedure:
as §1, §2

The target in the next data set is T1, LL-DAP-AT (At4g33680) (Arabidopsis thaliana, UniProt Q93ZN9).
T1 construct: The recombinant protein lacks the first 39 amino acids of the At4g33680 protein; hexa-His (N); S-TAG (N); made in house; host or cells: E. coli BL21-CodonPlus-RIPL
Kind of data set: Reverse OAB assay of pure recombinant LL-DAP-AT, temperature and pH optimum. Conditions: data not shown. The procedure:
(§3) For enzyme assays of crude proteins, extracts were prepared by grinding tissue in liquid nitrogen with 100 mM HEPESKOH (pH 7.6), followed by centrifugation at 10,000 g for 15 min, and then buffer exchange using an Amicon Ultra 30,000 MWCO filter. […] Reactions were incubated at 30° C. and the ΔA (440 nm) measured continuously. […] The reaction was incubated at 30° C., and the decrease in A340 was measured. […] The reaction was run to completion, determined by monitoring the increase in A340. […] The kinetic constants were calculated by nonlinear regression analysis using GraphPad Prizm version 4.03.
The kinetic properties of the pure recombinant At4g33680 enzyme were studied using several different assays. […] Most aminotransferases require pyridoxal phosphate as a cofactor (Liepman and Olsen, 2004). The Lys residue at position 305 in the At4g33680 protein is predicted to be the pyridoxal phosphate ligand. […] The enzyme was also found to show a temperature optimum of 36° C. and a pH optimum of 7.6 when HEPESKOH buffer was used, and 7.9 when Tris HCl buffer was used (data not shown).

The target of data set [3] is T2, Arabidopsis LL-DAP-AT (At4g33680) (Arabidopsis thaliana, UniProt Q93ZN9).
T2 construct: The recombinant protein lacks the first 39 amino acids of the At4g33680 protein; hexa-His (N); S-TAG (N); made in house; host or cells: E. coli BL21-CodonPlus-RIPL
Kind of data set: Quantitative reverse assay coupled to Ddh, pure recombinant LL-DAP-AT. Conditions: 30° C. The procedure: For enzyme assays of crude proteins, extracts were prepared by grinding tissue in liquid nitrogen with 100 mM HEPESKOH (pH 7.6), followed by centrifugation at 10,000 g for 15 min, and then buffer exchange using an Amicon Ultra 30,000 MWCO filter. […] Reactions were incubated at 30° C. and the ΔA (440 nm) measured continuously. […] The reaction was incubated at 30° C., and the decrease in A340 was measured. […] The reaction was run to completion, determined by monitoring the increase in A340.
For this reason quantitative coupled assays were developed to assess the enzyme activity in both the reverse and forward directions. […] The reaction sequence is shown in Scheme 1.

Data set [4] deals with T2, Arabidopsis LL-DAP-AT (At4g33680). Kind of data set: Quantitative forward assay coupled to 2-OG dehydrogenase, pure recombinant LL-DAP-AT. Conditions: for Vmax: forward assay; for Forward (biosynthetic) activity disfavored compared with the reverse activity: initial rate, forward versus reverse. On the procedure: FIG. 4. […] The forward assay was conducted in two steps. […] The aminotransferase was assayed in the second step.
as §3
The overall reaction series is shown in Scheme 2.
Thio-NADH has an absorbance maximum at 398 nm, which can be discerned from NADPH, which has an absorbance maximum at 340 nm. FIG. 4 illustrates such a reaction. […] Two plots are shown using 0.55 and 0.055 mM m-DAP.

Data set [5] concerns the target T3, CT390 (Chlamydia trachomatis serovar D, UniProt O84395).
T3 construct: His-Tag (N); made in house; host or cells: E. coli
Kind of data set: Quantitative forward assay of pure CT390. Particulars: saturating substrates. On the procedure: All enzyme assays were carried out essentially as described in Example I. Incubation temperature was 30° C. Kinetic constants were determined by varying substrate concentrations while keeping the co-substrate level constant at the concentration described below. Kinetic data were analyzed by non-linear regression analysis using GraphPad Prizm Version 4.03.
Quantitative assay of the physiologically forward reaction was carried out sequentially in a pre-reaction to generate THDP from m-DAP followed by an LL-DAP aminotransferase assay. […] The pre-reaction was run to completion, monitored by the increase in absorbance at 340 nm resulting from NADPH formation. The aminotransferase reaction was monitored at 398 nm to measure the formation of thioNADH. […] Subsequently, the aminotransferase assay was initiated by addition of CT390, bringing the total reaction volume to 1 mL.

Data set [6] concerns the target T3, CT390. Kind of data set: Quantitative reverse assay of pure CT390. Particulars: reverse assay, saturating substrates.

B1: Arabidopsis LL-DAP-AT: LL-DAP aminotransferase encoded by Arabidopsis locus At4g33680 (SEQ ID NO: 7), recombinant protein (protein, listed as Arabidopsis thaliana)
chain: MSSTHQLVSSMISSSSSTFLAPSNFNLRTRNACLPMAKRVNTCKCVATPQEKIEYKTKVSRNSNMSKLQAGYLFPEIARRRSAHLLKYPDAQVISLGIGDTTEPIPEVITSAMAKKAHELSTIEGYSGYGAEQGAKPLRAAIAKTFYGGLGIGDDDVFVSDGAKCDISRLQVMFGSNVTIAVQDPSYPAYVDSSVIMGQTGQFNTDVQKYGNIEYMRCTPENGFFPDLSTVGRTDIIFFCSPNNPTGAAATREQLTQLVEFAKKNGSIIVYDSAYAMYMSDDNPRSIFEIPGAEEVAMETASFSKYAGFTGVRLGWTVIPKKLLYSDGFPVAKDFNRIICTCFNGASNISQAGALACLTPEGLEAMHKVIGFYKENTNIIIDTFTSLGYDVYGGKNAPYVWVHFPNQSSWDVFAEILEKTHVVTTPGSGFGPGGEGFVRVSAFGHRENILEACRRFKQLYK
Regarding B1, the “Vmax R” value in the data set with LL-DAP transaminase [1] is 12 µmol/min/mg. Besides, the “Vmax F” value with LL-DAP transaminase [2] amounted to 0.8 µmol/min/mg. The pH optimum in the data set with LL-DAP-AT (At4g33680) (HEPESKOH buffer) is 7.6; with LL-DAP-AT (At4g33680) (Tris HCl buffer), 7.9. Moreover, the Temperature optimum with LL-DAP-AT (At4g33680) stood at 36 °C. In addition, the Vmax is given as 22.3 ± 0.3 μmol min^−1 mg^−1 protein in data set [3] (pH 7.5); 22.3 μmol min^−1 mg^−1 protein in data set [3] (pH 7.5, listed as LL-DAP-AT); 0.38 ± 0.01 μmol min^−1 mg^−1 protein in data set [4]; 0.38 μmol min^−1 mg^−1 protein in data set [4] (listed as LL-DAP-AT). Also, the “Forward (biosynthetic) activity disfavored compared with the reverse activity” value in data set [4] was 50 fold; in data set [4] (listed as A. thaliana enzyme), “approximately 60 fold”.

B2: CT390: LL-DAP aminotransferase encoded by ct390 of Chlamydia trachomatis (SEQ ID NO: 9), His-Tag fusion (protein, listed as Chlamydia trachomatis)
chain: MKRNPHFVSLTKNYLFADLQKRVAQFRLENPQHTVINLSIGDTTQPLNASVAEAFASSIARLSSPTTCRGYGPDFGLPALRQKLSEDFYRGFVDAKEIFISDGAKVDLFRLLSFFGPNQTVAIQDPSYPAYLDIARLTGAKEIIALPCLQENAFFPEFPEDTHIDILCLCSPNNPTGTVLNKDQLRAIVHYAIEHEILILFDAAYSTFISDPSLPKSIFEIPDARFCAIEINSFSKPLGFAGIRLGWTVIPQELTYADGHFVIQDWERFLSTTFNGASIPAQEAGVAGLSILPQLEAIHYYRENSDLLRKALLATGFEVFGGEHAPYLWVKPTQANISDRDLFDFFLREYHIAITPGIGFGRSGSGFVRFSSLGKREDILAACERLQMAPALQS
modifications: His-Tag
Take B2: the Vmax with CT390 [5] was 0.38 μmol min^−1mg proteins^−1; in the data set with CT390 [6], 0.59 μmol min^−1mg proteins^−1.
